Assay [1] has as its target T1, apical domain of human CD71 (human, UniProt P02786 189-383, limits assumed).
T1 construct: domain: apical domain; Screen 4 panned against human apical domains; also called human apical domain
The assay is described as follows: primary ELISA screen, Screen 4; signal on apical domain over signal on HSA. For orientation: An ELISA detects its analyte on a solid surface through an enzyme-linked reagent.

In assay [2] the target is T2, human CD71 extracellular domain (human, UniProt P02786 89-760).
T2 construct: also called hCD71; CD71-ECD
T2 sequence (P02786 89-760): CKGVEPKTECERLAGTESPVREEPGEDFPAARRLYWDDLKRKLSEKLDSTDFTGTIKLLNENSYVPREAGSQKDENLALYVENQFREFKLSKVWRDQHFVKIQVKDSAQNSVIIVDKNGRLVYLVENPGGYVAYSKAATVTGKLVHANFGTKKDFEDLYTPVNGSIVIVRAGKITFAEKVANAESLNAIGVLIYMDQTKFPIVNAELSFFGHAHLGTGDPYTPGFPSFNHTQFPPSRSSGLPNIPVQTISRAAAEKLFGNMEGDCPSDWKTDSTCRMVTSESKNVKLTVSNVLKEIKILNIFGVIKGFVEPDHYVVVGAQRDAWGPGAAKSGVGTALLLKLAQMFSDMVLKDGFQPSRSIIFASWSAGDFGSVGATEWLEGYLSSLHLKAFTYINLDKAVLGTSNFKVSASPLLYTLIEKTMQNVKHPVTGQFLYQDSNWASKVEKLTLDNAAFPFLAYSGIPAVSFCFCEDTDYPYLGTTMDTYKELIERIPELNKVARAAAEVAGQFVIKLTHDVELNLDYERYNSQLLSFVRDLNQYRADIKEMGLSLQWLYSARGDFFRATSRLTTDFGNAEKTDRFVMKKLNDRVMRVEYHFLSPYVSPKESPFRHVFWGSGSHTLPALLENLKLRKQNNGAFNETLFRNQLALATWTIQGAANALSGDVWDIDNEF
The assay is described as follows: primary ELISA screen, Screen 4; signal on hCD71 over signal on HSA.

The target in assay [3] is T1, apical domain of human CD71. Nature of the assay: primary ELISA screen, Screen 4, luminescence. Also: test concentration or dose not given here.
Assay [4] has as its target T2, human CD71 extracellular domain. Nature of the assay: primary ELISA screen, Screen 4, luminescence. Also: test concentration or dose not given here.

T1 sequence (P02786 189-383 limits assumed): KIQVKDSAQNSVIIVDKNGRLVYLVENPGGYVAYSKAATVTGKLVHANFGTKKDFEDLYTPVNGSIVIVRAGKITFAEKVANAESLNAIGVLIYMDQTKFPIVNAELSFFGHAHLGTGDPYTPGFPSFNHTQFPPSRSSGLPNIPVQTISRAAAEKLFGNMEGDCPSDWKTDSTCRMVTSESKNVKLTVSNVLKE

B1: CD71-binding FN3 domain of SEQ ID NO: 551 (designed binder)
chain: MLPAPKNLVVSRVTEDSARLSWTAPDAAFDSFEIAYFETCRTGEAIVLTVPGSERSYDLTGLKPGTEYWVQIGGVKGGNWSAPLSAIFTT
As for B1, the “Apical domain:HSA” value in assay [1] stood at 158 ratio. For the same molecule, the “hCD71:HSA” value in assay [2] is 45 ratio. Further, the “Apical domain, RLU” value in assay [3] came to 4.07e+06 RLU. Also, the “hCD71, RLU” value in assay [4] was determined as 1.17e+06 RLU.

B2: CD71-binding FN3 domain of SEQ ID NO: 552 (designed binder)
chain: MLPAPKNLVVSRVTEDSARLSWTAPDAAFDSFFIGYLEPQPPGEAIHLFVPGSERSYDLTGLKPGTEYNVTIQGVKGGFPSMPLSAIFTT
In the case of B2, the “Apical domain:HSA” value in assay [1] turned out to be 137 ratio. Further, in assay [2], the “hCD71:HSA” value was 119 ratio. The “Apical domain, RLU” value in assay [3] was found to be 5.7e+06 RLU. In assay [4], the “hCD71, RLU” value was 4.95e+06 RLU.

B3: CD71-binding FN3 domain of SEQ ID NO: 547 (designed binder)
chain: MLPAPKNLVVSRVTEDSARLSWTAPDAAFDSFFIGYLEPQPPGEAIHLIVPGSERSYDLTGLKPGTEYNVTIQGVKGGFPSDPLVASFTT
As for B3, the “Apical domain:HSA” value in assay [1] turned out to be 322 ratio. Also, the “hCD71:HSA” value in assay [2] was 277 ratio. In addition, the “Apical domain, RLU” value in assay [3] was found to be 5.35e+06 RLU. Moreover, the “hCD71, RLU” value in assay [4] is 4.59e+06 RLU.

B4: CD71-binding FN3 domain of SEQ ID NO: 548 (designed binder)
chain: MLPAPKNLVVSRVTEDSARLSWTAPDAAFDSFFIGYLEPQPPGEAIYLFVPGSERSYDLTGLKPGTEYNVTIQGVKGGFPSMPLSAIFTT
As to B4, the “Apical domain:HSA” value in assay [1] was 257 ratio. The “hCD71:HSA” value in assay [2] turned out to be 230 ratio. Further, the “Apical domain, RLU” value in assay [3] was determined as 5.29e+06 RLU. The “hCD71, RLU” value in assay [4] worked out at 4.73e+06 RLU.

B5: CD71-binding FN3 domain of SEQ ID NO: 550 (designed binder)
chain: MLPAPKNLVVSRVTEDSARLSWTAPDAAFDSFFIGYLEPQPPGEAIHLFVPGSERSYDLTGLKPGTEYNVTIQGVKGGFPSIPLYARFTT
Turning to B5, the “Apical domain:HSA” value in assay [1] is 170 ratio. In assay [2], the “hCD71:HSA” value amounted to 141 ratio. In assay [3], the “Apical domain, RLU” value was found to be 5.8e+06 RLU. Besides, in assay [4], the “hCD71, RLU” value came to 4.79e+06 RLU.

B6: CD71-binding FN3 domain of SEQ ID NO: 549 (designed binder)
chain: MLPAPKNLVVSRVTEDSARLSWTAPDAAFDSFFIGYLEPQPPGEAISLWVPGSERSYDLTGLKPGTEYNVTIQGVKGGFPSMPLSAIFTT
Turning to B6, the “Apical domain:HSA” value in assay [1] stood at 242 ratio. In assay [2], the “hCD71:HSA” value worked out at 198 ratio. For the same molecule, the “Apical domain, RLU” value in assay [3] is 3.49e+06 RLU. Also, the “hCD71, RLU” value in assay [4] is 2.86e+06 RLU.

(Values after patent publication US20260151494A1 (ARO BIOTHERAPEUTICS, published 2026).)
